What was measured:
G250 antigen = G250 antigen (UniProt Q16790 38-459); experiment: flow cytometry (FACS) on G250 positive tumor cells
recombinant human GM-CSF = target: T1, recombinant human GM-CSF (human, UniProt P04141 18-144); experiment: SPR (BIAcore 2000), rhGM-CSF on the chip, global fitting of Rmax
T1 construct: also called rhGM-CSF
Protocol: Biosensor analyses were carried out using a commercially available, BIAcore 2000, and a carboxymethyldetran coated sensor chip. The chip was derivatized with 1000, 300, or 100 RVs of recombinant human GM-CSF, on channels 1, 2, and 3 of the machine using standard amine coupling chemistry with channel 4 retained as the control blank channel.
After injection, dissociation was monitored by allowing HBS buffer to flow over the chip surface for 5 minutes. Any bound antibody was then eluted, and the chip surface was regenerated, between samples, via injecting 40 μl of 100 mM HCl, pH 2.7, at a rate of 5 μl/min.

T1 sequence (P04141 18-144 limits assumed): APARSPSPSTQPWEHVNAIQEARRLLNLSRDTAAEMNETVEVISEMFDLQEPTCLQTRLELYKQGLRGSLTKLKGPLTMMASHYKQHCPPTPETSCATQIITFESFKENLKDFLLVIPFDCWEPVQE

B1: chimeric G250 antibody (antibody, V domains shown)
VH: DVKLVESGAALVKLGGSLKLSCAASGFTFSNYYMSWVRQTPEKRLELVAAINSDGGITYYLDTVKGRFTISRDNAKNTLYLQMSSLKSEDTALFYCARHRSGYFSMDYWGQGTSVTVSS
VL: DIVMTQSQRFMSTTVGDRVSITCKASQNVVSAVAWYQQKPGQSPKLLIYSASNRYTGVPDRFTGSGSGTDFTLTISNMQSEDLADFFCQQYSNYPWTFGGGTKLEIKR
notes: Used as positive control in FACS; Its making is not described apart from this
B1: binds (G250 antigen).

B2: chimeric 19/2 anti-human GM-CSF monoclonal antibody (antibody, V domains shown)
VH: EVQLQQSGPELVKPGASVKISCKASGYTFTDYNIHWVKQSHGKSLDWIGYIAPYSGGTGYNQEFKNRATLTVDKSSSTAYMELRSLTSDDSAVYYCARRDRFPYFDYWGQGTTLRVSS
VL: DIVMIQSQKFVSTSVGDRVNITCKASQNVGSNVAWLQQKPGQSPKTLIYSASYRSGRVPDRFTGSGSGTDFILTITTVQSEDLAEYFCQQFNRSPLTFGSGTKLELKR
notes: made in CHO DG44 cells; also called chimeric 19/2 antibody; ch19/2
A Ka (recombinant human GM-CSF) of 2.69e+10 M⁻¹ and a koff (recombinant human GM-CSF) of 1.9e-05 s⁻¹ were found for B2 in this work.
